Earlier results, collected in article PMC6426597.

Target: CD40 (Homo sapiens) (UniProt P25942)
UniProt P25942, sequence (P25942 21-193): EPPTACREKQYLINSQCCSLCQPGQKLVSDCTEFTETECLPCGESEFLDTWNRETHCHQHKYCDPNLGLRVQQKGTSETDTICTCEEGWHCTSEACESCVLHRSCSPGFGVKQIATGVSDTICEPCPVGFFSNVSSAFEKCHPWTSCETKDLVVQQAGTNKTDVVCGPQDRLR

## TSST-1 (from UniProt P06886)
  Kd: 2.7 µM
